The assay addresses Polyketide synthase 13 (Pks13) of Mycobacterium smegmatis, endogenous, with native substrates bound (Mycobacterium smegmatis) (UniProt A0R617). Kind of assay: SEC. A general note: Size exclusion chromatography separates by hydrodynamic size, large species first.

In turn, “Polyketide synthase 13 (Pks13) of Mycobacterium smegmatis, endogenous, with native substrates bound (from UniProt A0R617 1-1816) (enzyme)” came in with a stoichiometry N of 4.

By stoichiometry N is commonly meant the number of molecules, sites or subunits per partner or assembly.

The record behind these values is paper PMC10312659.
